Results as given in the nanobody polyreactivity screen of Harvey et al. (2022).

Experiment: yeast display, Sf9 membrane polyspecificity reagent, FACS + sequencing; frameworks hold sequencing errors
Summary of the method: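 After 36–48 hours of galactose induction, yeast (Saccharomyces cerevisiae BJ5465) displaying a synthetic nanobody library were stained at 4 °C for 1 hour with 10% biotinylated, detergent-solubilized Sf9 membrane reagent. Streptavidin microbeads enriched the stained cells before FACS sorting into low and high (top ~1%) gates on anti-HA and streptavidin fluorescence. Each clone's polyreactivity label reflects its gate of origin.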

Sequence | polyreactivity (PSR sort gate)
QVQLVESGGGLVQAGGSIRLSCAASGFTFYYNTMGCYRQAPGKERELVAAISYSAGSTFYADSVKGRFTISRDNAKNTVYLQMNSLKTEDTAVYYCAAGRPRRHKGYHFGYWGQGTQVTVSS | low polyreactivity
QVQLVESGGGLVQAGGSLRLSCAASGSTFRSYAMGWYRQAPGKERELVAAITSSGGRTYYADSVKGRFTISRDNAKHTVYLQMNSLKPEDTAVYYCAARTYSWGDWGQGTQVTVSS | high polyreactivity
QVQLVESGGGLVQAGGSLRLSCAASGGIFFLYAMGWYRQAPGKETELVAAIRQDGGSTYYADSVKGRFTISRDNAKNTVYLQMNSLKPEDTAVYYCNAGYVKTGLEYYYWGQGPQVTVSS | low polyreactivity
QVQLVESGGCLVQAGGSLRLSCAASGSTFIINAMGWYIQAPGKERVLVAANTSTGGTNYADSVKGRFTISRDNAKNTVYLQMNSLKPEATAVYYCAARYYQDGYDYWGQGTQGTVSS | high polyreactivity
QVQLVESGGGLVQAGGSLRLSCAASGSTRRYVMGWYRQAPWKERELVAAISYSGGSTYYADSVKGRFTISRDNAKNTVYLQMNSLKPEDTAVYYCAADGYSGQYGGHMGYWGQGTQVTVSS | high polyreactivity
QVHLVESGGGLVQAGGSLRLICAASGYIFPYYSMGWYRQAPGKERELVAGITTDGSSTYYADSVKGRFTISRDNAKKTVYLQMNSLKPEDTAVYYCYGYPGYTWGWYDFWGQGSQVTVSS | low polyreactivity
QVQLVESGGLLVQAGGSLRLSCAASGSNSYRYDIVWYRQPPGKERELVATIRSGGSTNYADSVKGRFTISRDNAKNTVYLQMNSLKPEDTAVYYCASRLYARKKLHFSADSDYWGQGTQVSVSS | low polyreactivity
QVQLVESGGGLVQAGGSLRLSCAASGSTFNQYDMGWYRQAPGKERELVAAITWSGTSTYYADSVKGRFTISRDNAKNTVYLQMNSLTPEDTAVYYCAADDPFHSSCWTYRYGYWGQGTQVTVSS | low polyreactivity
QVQLVESGGGLVQAGGSLRLSCAASGIIFPYYAMGWYRQAPGKESELVAAISQSGGSTYYADSVKGRFTISRDNAKNTVFFQMNSVKPEDTAVYYCDKFIPSYHDGDYWGQGTQVTVSS | low polyreactivity
QVQLVESGGGLVQAGGSRRLSCAASGSTFYGYAMGWYRQAPGKEREFVAAITTSGGSTYYADSVKGRFTISRDNAKNTVYLQMNSLKPEDTAVYYCDADAPSWYDRQYDYWGQGTQVTVSS | low polyreactivity
QVQLVESGGGLVQAGGSLRLSCAASGFTFIGNAMGWYRQAPGKERELVAAISWRGGSTYYADSVKGRFTISRDNAKNTVYLQMNSLKPEDTAVYYCNKVPRRVSRSERDYWGQGTQVTVSS | high polyreactivity
QVQLVESGGGLVQAGGSLRLSCAASGSIFGYYAMGWYRQAPGKERELVAAIWRGDNTYYADSVKGRFTISRDNAKNTVYLQMNSLKPEDTAVYYCAARYWSRRIFREGYWGQGTQVTVSS | low polyreactivity
QVQLVESGGGLVQAGGSLRLSCDASGLTFTRNAMGWYRPAPGKERELVAAITSTGSTNYADSVKGRFTISRDNAKNTVYLQMNSLKPEDTAVYYCNARNAYYDDNYWGQGTQVTVSS | low polyreactivity
QVQLVESGGGLVQAGGSLRLICAASGYTFAFYAMGWYRQAPGKEREFVASINWNGSSTYADSVKGRFTISRDNAKNTVYLQMNSLKPEDTAVYYCNADYNRNSVQFSLYDYWGQGTQVTVSS | low polyreactivity
QVQLVESGGGLLQAGGSLRLSCAASGSIFQYKAMGWYRQAPGKERELVAAINGGGSTYYADSVKGRFTISRDNEKNTVYLQMNSLKPEYTAVYYCAADGGAYYYRGPGKFGIEDSWGQGTQVTVSS | low polyreactivity
QVQLVESGGGLVQAGGSLRLSCAASGNPFTWYTMGWYRPAPGKERDLVAVSTSDGSKYYADSVKGRFTISRDNAKNTVYLQMNSLKPEDTAVYYCNAGGGTNYGSGYWYGYYYWGQGTQVTVSS | low polyreactivity

Sequence | polyreactivity (PSR sort gate)
QFQLVESGGGLVQAGGSLRLSCAASGITFRAYAMGWYRQAPGKERELVAAITGRFGRTYYADSVKGRFTISRDNENNSVYLQMNSLKPEDTAVYYCNAYLWRVTQTYDYWGQGTQVTVSS | high polyreactivity
QVQLVDSGGGLVQAGGSLRLSCAAYGSTDKPNAMGWYRQAPGKQRELVAANSGSGGSTYYADTVKGRFTISRDNAKNTVYLQMNSLKPEDTAVYYCAAKRTGNGYPRSGYSRYEYWGQGTQVTVSS | high polyreactivity
QVQLVESGGGLVHAGGSLRLSCAPSGRTFPRYAMGWYRQAPGKERELVAAISVRAGITYYADSVKGRFTISRDNAKNTVYLQMNSLKPEDTAVYYCDKEHSSTSYDEGDYWGQGTQVTVSS | low polyreactivity
QVQLVDSGGGLVQAEGSLRLSCAPSGIIFGGYAMGWYIPAPGKERELVAAISRSGGSTYYADSVKGRFTISRDNAKNTVYLQMNSLKPEDTAVYYCAADGGAYEYDYWGQGTQVTVSS | high polyreactivity
QVQLVESGGGLVQAGGSLRLSCAASGFTFPLYAMGWYRQAPGKERELVASISSRGGSTYYADSVKGRFTISRDNAKNTVYLQMNSLKPEDTAVYYCARSTSRYYYWGQGTQVTVSS | high polyreactivity
QGQLVETGGGLVQAGGSLRLSCAASGRSSVSMLMGWYRQPPGKERELVARITGSGGSTFYADSVKGRFTISRDNAKNTVYLQMNSLIPEDTAVYYCAAGYLWRGRYNYWGQGTQVTVSS | high polyreactivity
QVQLVESGGGLVQAGGSLRLSCAASGSIFGFNALGWYRQAPGKERELVAAINNGGSTNYADSVKGRFTISRDNATNTVYLQMNSLKPEDTAVYYCAARLNYIRRGYWGQGTQVTVSS | high polyreactivity
QVQLVESGGGLVQAGGSLRLSCAASGLIFYRYAMGWYRQAPGKERELVAAISSGGSTYYADSVKGRFTISRDNAKNTVYLQMNSLKPEDTAVYYCNAKVYGRRYDYWGQGTQVTVSS | high polyreactivity
QVKLVESGGGLVQEGASLRLSCAASGRIFGNYAMGWYRQAPGKERELVAAIDLSGDSTYYADSVKGRFTISRDNAKNTVYLQMNSLKPEDTAVYYCAATDWFSEYYWGQGTQVTVSS | low polyreactivity
QVQLEESGGGLVQAGGSLRLSCAASGIIFPRNAMGWYRQAPGKERELVAAITNTGSTKYADSVKGRFTISRDNAKNSVYLHMNSLKPEDTAVYYCAKELGSVPSPSLYDYWGQGTQVTVSS | low polyreactivity
QVQLVESGGGLVQAGGSLRLSCAASGYIVTSYTMGWYIQAPGKERELVAAISASDGSTYADSVKGRFTISRDNAKNTVYLQMNSLKPEDTAVYYCNKAAYGGHRTSEQVGWVYLYDYWGQGTQVTVSS | low polyreactivity
QVQLVESAGGLVQAGVSLRLSCAASGRTFVGNAMGGYRQAPGKERELVADITWSGDITYYADSVKGRFTIARDTAKNTVYLQMISLKPEDTAVYYCAADYHRRLTDYDYWGQGTQVTVSS | low polyreactivity
QVQLVESGGGLVQAGGSLRLSCAASGSTFGFYAMGWYRQAPGKERELVAAIDSGGSTYYADSVKGRFTISRDNAKNTVYLQMNSLKPEDTAVYYCAVRHRYTRAYWGRDYWGQGTQVTVSS | low polyreactivity
QVQLVESGGGLVQAGGSLRLSCAASGSIFGRNDMGWYRQAPGKERELVAAISGDTTTNYADSVKGRFTISRDNAKNTVYLQMNSLKPEDTAVYYCAAKYGYRRGTVRGYTRVYYWGQGTQVTVSS | high polyreactivity
QVQLVESGGRIVQAGGSLRLRCAASGSTFHRYAMGRYRQAPGKERELVAAISRSGGSTYYADSVKGRFTISRDTAKNTVYLLMNSLKPVDTAVYYCAADRTGHGFGYWGQGTQVTVSS | high polyreactivity
QVQLVESGGCLVQAGGSLRLSCAASGSTINSYAMGCYRQAPGKERELVAAITWIGGNTYYADSVKGRFTISRDNSKNTVYLQMTSLKPEDTAVYYCGADEYFEYYYWGQGTQVTVSS | low polyreactivity
